Test results reported in patent US20160039916A1 (MISFOLDING DIAGNOSTICS, published 2016).
Ends that are not written are not given here.

Target: T1, Peptide 13 (TSESGELHGLTTE) (also: biotinylated)
T1 construct: Lies on the D-strand of TTR
T1 peptide: TSESGELHGLTTE
Test: indirect ELISA: biotinylated peptide 13 (TSESGELHGLTTE) captured on NeutrAvidin, antibody titrated, HRP secondary antibody, TMB, % max. binding, the axis is Log10 [Antibody] nM

EC50: 0.247 nM
B1: MFD108 (antibody, V domains shown)
VH: EVQLVESGGDLVKPGGSLKLSCAASGFTFSNYGMSWVRQTPDKRLEWVATITSGGSYTYYPDSVKGRFTISRDNAKNTLYLQMSSLKSEDTAMYYCARDGTAWFAYWGQGTLVTVSA
VL: DIQMTQTTSSLSASLGDRVTISCRASQDISNYLNWYQQKPDGTVKLLIYYTSRLHSGVPSRFSGSGSGTDYSLTISNLEEEDIATYFCQQGNTLRTFGGGTKLEIK
